In assay [1] the target is HLA-DR1 (HLA-DRβ1*0101) purified from the EBV-transformed homozygous B lymphoblastoid cell line LG2 (human). The assay is described as follows: radioligand binding.
Assay [2] has as its system pMART-1-specific CD4+ T cell line D7. Nature of the assay: Recognition of titrated peptides on HLA-DR1+ APC by CD4+ T cell line D7. The format is cell-based, human. The note with it: T cell line D7, peptide 25 μM, ELISA; Fig. 4b. (In an ELISA, binding on a coated surface is turned into a signal by an enzyme label.)
In assay [3] the test system is pMART-1-specific CD4+ T cell clone D7-F6. The assay is described as follows: Recognition of peptide-pulsed HLA-DR1+ EBV-B cells by CD4+ T cell clone D7-F6. In kind it is cell-based, human. The note with it: ELISA.
Assay [4] has as its target HLA-DR1 (HLA-DRβ1*0101) purified from the EBV-transformed homozygous B lymphoblastoid cell line LG2 (human). Nature of the assay: radioligand binding. This is another data set of the same source.

Like-named read-outs stand apart in the source and are kept apart here. Where no end group is shown, it is not given here. [ ]: non-standard residue; d: D form. pS = N[C@@H](COP(=O)(O)O)C(=O)O Bounds are passed on as bounds.

As a reminder, the IC50 is the concentration at which inhibition is half-maximal. Read a high IC50 as lower potency.

“pMART-1_(98–109) phosphopeptide (from UniProt Q16655 98-109)”: the fold decrease in other in assay [1] is less than 2 fold.

With PKYVKQNTLKLAT [HA307-319], the “GM-CSF secretion from T cells + APC + peptide” value in assay [2] is 0.7 ng/mL; in assay [3] (clone D7-F6, HLA-DR1+ 2048-EBV cells pre-pulsed with peptide 25 μM, overnight, Fig. 3) it was less than 15 pg/mL; in assay [3] (clone D7-F6, peptide 15 μM, Fig. 4a) it was less than 20 pg/mL.

Regarding “pMART-1_(100–116) phosphopeptide (from UniProt Q16655 100-116)”, the concentration for half-maximal inhibition (IC50) in assay [1] was 327 nM.

B1: pMART-1_(100–114) phosphopeptide (peptide)
peptide: APPAYEKL[pS]AEQSPP
The molecule B1 gave a half-maximal inhibitory concentration (IC50) in assay [4] of 102 nM.

B2: pMART-1_(100–111) phosphopeptide (peptide)
peptide: APPAYEKL[pS]AEQ
In assay [4], B2 gave a 50% inhibitory concentration (IC50) of 459 nM. This IC50 is about 4.5-fold higher than that of the molecule before.

B3: pMART-1_(100–115) phosphopeptide (peptide)
peptide: APPAYEKL[pS]AEQSPPP
Regarding B3, the IC50 in assay [4] stood at 142 nM.
